The text below walks through data of article PMC12623744 (Scientific Reports, 2025).

T1: HVEM-His protein (UniProt Q92956 39-202, labelled with RED-tris-NTA 2nd Generation dye on the His tag (spectral shift only))
T1 construct: Herpes virus entry mediator (HVEM); No catalogue number printed; also called herpes virus entry mediator; source: bought: ACROBiosystems
T1 sequence (looked up): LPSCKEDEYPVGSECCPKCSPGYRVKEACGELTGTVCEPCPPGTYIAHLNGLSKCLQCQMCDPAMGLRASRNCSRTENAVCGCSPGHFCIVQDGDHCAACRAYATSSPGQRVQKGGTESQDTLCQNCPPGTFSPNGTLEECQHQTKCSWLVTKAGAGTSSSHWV

B1: light2 (peptide)
peptide: Ac-ECGEEVVVRVLDERLVRLRDGTRSYFGAFCV-NH2
modifications: disulfide 2-30
SMILES: CC(=O)N[C@@H](CCC(=O)O)C(=O)N[C@H]1CSSC[C@@H](C(=O)N[C@H](C(N)=O)C(C)C)NC(=O)[C@H](Cc2ccccc2)NC(=O)[C@H](C)NC(=O)CNC(=O)[C@H](Cc2ccccc2)NC(=O)[C@H](Cc2ccc(O)cc2)NC(=O)[C@H](CO)NC(=O)[C@H](CCCNC(=N)N)NC(=O)[C@H]([C@@H](C)O)NC(=O)CNC(=O)[C@H](CC(=O)O)NC(=O)[C@H](CCCNC(=N)N)NC(=O)[C@H](CC(C)C)NC(=O)[C@H](CCCNC(=N)N)NC(=O)[C@H](C(C)C)NC(=O)[C@H](CC(C)C)NC(=O)[C@H](CCCNC(=N)N)NC(=O)[C@H](CCC(=O)O)NC(=O)[C@H](CC(=O)O)NC(=O)[C@H](CC(C)C)NC(=O)[C@H](C(C)C)NC(=O)[C@H](CCCNC(=N)N)NC(=O)[C@H](C(C)C)NC(=O)[C@H](C(C)C)NC(=O)[C@H](C(C)C)NC(=O)[C@H](CCC(=O)O)NC(=O)[C@H](CCC(=O)O)NC(=O)CNC1=O
notes: Fragment 210-240 of LIGHT with two residues substituted by cysteines for a disulfide bond; also called peptide 2; source: synthetic peptide (SPPS, RP-HPLC; disulfide bond formed by air oxidation)
B2: light3 (peptide)
peptide: Ac-TCTHGLYKRTPRYPEELELLVSQCS-NH2
modifications: disulfide 2-24
SMILES: CC(=O)N[C@H](C(=O)N[C@H]1CSSC[C@@H](C(=O)N[C@@H](CO)C(N)=O)NC(=O)[C@H](CCC(N)=O)NC(=O)[C@H](CO)NC(=O)[C@H](C(C)C)NC(=O)[C@H](CC(C)C)NC(=O)[C@H](CC(C)C)NC(=O)[C@H](CCC(=O)O)NC(=O)[C@H](CC(C)C)NC(=O)[C@H](CCC(=O)O)NC(=O)[C@H](CCC(=O)O)NC(=O)[C@@H]2CCCN2C(=O)[C@H](Cc2ccc(O)cc2)NC(=O)[C@H](CCCNC(=N)N)NC(=O)[C@@H]2CCCN2C(=O)[C@H]([C@@H](C)O)NC(=O)[C@H](CCCNC(=N)N)NC(=O)[C@H](CCCCN)NC(=O)[C@H](Cc2ccc(O)cc2)NC(=O)[C@H](CC(C)C)NC(=O)CNC(=O)[C@H](Cc2c[nH]cn2)NC(=O)[C@H]([C@@H](C)O)NC1=O)[C@@H](C)O
notes: Residues 161-185 of LIGHT with two residues substituted by cysteines for a disulfide bond; also called peptide 3; source: synthetic peptide (SPPS, RP-HPLC; disulfide bond formed by air oxidation)
B3: light3_E178L (peptide)
peptide: Ac-TCTHGLYKRTPRYPEELLLLVSQCS-NH2
modifications: disulfide 2-24
SMILES: CC(=O)N[C@H](C(=O)N[C@H]1CSSC[C@@H](C(=O)N[C@@H](CO)C(N)=O)NC(=O)[C@H](CCC(N)=O)NC(=O)[C@H](CO)NC(=O)[C@H](C(C)C)NC(=O)[C@H](CC(C)C)NC(=O)[C@H](CC(C)C)NC(=O)[C@H](CC(C)C)NC(=O)[C@H](CC(C)C)NC(=O)[C@H](CCC(=O)O)NC(=O)[C@H](CCC(=O)O)NC(=O)[C@@H]2CCCN2C(=O)[C@H](Cc2ccc(O)cc2)NC(=O)[C@H](CCCNC(=N)N)NC(=O)[C@@H]2CCCN2C(=O)[C@H]([C@@H](C)O)NC(=O)[C@H](CCCNC(=N)N)NC(=O)[C@H](CCCCN)NC(=O)[C@H](Cc2ccc(O)cc2)NC(=O)[C@H](CC(C)C)NC(=O)CNC(=O)[C@H](Cc2c[nH]cn2)NC(=O)[C@H]([C@@H](C)O)NC1=O)[C@@H](C)O
notes: Analogue of light3 (residues 161-185 of LIGHT with two cysteines for a disulfide bond) in which glutamic acid 178 was replaced by leucine; source: synthetic peptide (SPPS, RP-HPLC; disulfide bond formed by air oxidation)
B4: light1 (peptide)
peptide: Ac-EAGEEVVCRVLDERLVRLRDGTRSYCGAF[Nle]V-NH2
modifications: disulfide 8-26
SMILES: CCCC[C@H](NC(=O)[C@H](Cc1ccccc1)NC(=O)[C@H](C)NC(=O)CNC(=O)[C@@H]1CSSC[C@H](NC(=O)[C@@H](NC(=O)[C@@H](NC(=O)[C@H](CCC(=O)O)NC(=O)[C@H](CCC(=O)O)NC(=O)CNC(=O)[C@H](C)NC(=O)[C@H](CCC(=O)O)NC(C)=O)C(C)C)C(C)C)C(=O)N[C@@H](CCCNC(=N)N)C(=O)N[C@@H](C(C)C)C(=O)N[C@@H](CC(C)C)C(=O)N[C@@H](CC(=O)O)C(=O)N[C@@H](CCC(=O)O)C(=O)N[C@@H](CCCNC(=N)N)C(=O)N[C@@H](CC(C)C)C(=O)N[C@@H](C(C)C)C(=O)N[C@@H](CCCNC(=N)N)C(=O)N[C@@H](CC(C)C)C(=O)N[C@@H](CCCNC(=N)N)C(=O)N[C@@H](CC(=O)O)C(=O)NCC(=O)N[C@@H]([C@@H](C)O)C(=O)N[C@@H](CCCNC(=N)N)C(=O)N[C@@H](CO)C(=O)N[C@@H](Cc2ccc(O)cc2)C(=O)N1)C(=O)N[C@H](C(N)=O)C(C)C
notes: Fragment 210-240 of LIGHT with two residues substituted by cysteines for a disulfide bond; the synthesized peptide has norleucine there; also called peptide 1; source: synthetic peptide (SPPS, RP-HPLC; disulfide bond formed by air oxidation)
B5: light4 (peptide)
peptide: Ac-TICHGLYKRTPRYPEELELLVSCQS-NH2
modifications: disulfide 3-23
SMILES: CC[C@H](C)[C@H](NC(=O)[C@@H](NC(C)=O)[C@@H](C)O)C(=O)N[C@H]1CSSC[C@@H](C(=O)N[C@@H](CCC(N)=O)C(=O)N[C@@H](CO)C(N)=O)NC(=O)[C@H](CO)NC(=O)[C@H](C(C)C)NC(=O)[C@H](CC(C)C)NC(=O)[C@H](CC(C)C)NC(=O)[C@H](CCC(=O)O)NC(=O)[C@H](CC(C)C)NC(=O)[C@H](CCC(=O)O)NC(=O)[C@H](CCC(=O)O)NC(=O)[C@@H]2CCCN2C(=O)[C@H](Cc2ccc(O)cc2)NC(=O)[C@H](CCCNC(=N)N)NC(=O)[C@@H]2CCCN2C(=O)[C@H]([C@@H](C)O)NC(=O)[C@H](CCCNC(=N)N)NC(=O)[C@H](CCCCN)NC(=O)[C@H](Cc2ccc(O)cc2)NC(=O)[C@H](CC(C)C)NC(=O)CNC(=O)[C@H](Cc2c[nH]cn2)NC1=O
notes: Residues 161-185 of LIGHT with two residues substituted by cysteines for a disulfide bond; also called peptide 4; source: synthetic peptide (SPPS, RP-HPLC; disulfide bond formed by air oxidation)

Positions of bridges follow the written chain, without caps; N, C: chain ends. Non-standard residues stand in square brackets, D forms with d. Residues, ends and D or L forms follow the SMILES beside them. Nle = CCCC[C@H](N)C(=O)O

One test relates to HVEM/LIGHT complex. In words: Competitive ELISA, inhibition of HVEM/LIGHT complex formation. It counts as biochemical, human. Conditions: across all tested concentrations (50, 12.5, 3.125 µM). The method, then:
To assess the inhibitory properties of the peptides the ELISA was conducted. Based on the obtained results, it can be concluded that the inhibitory properties of the peptides are strongly correlated with their affinity to HVEM as determined by theoretical methods, as well as with those measured by SpS.
ELISA was conducted using transparent polystyrene 96-well plates (Brand, Wertheim, Germany). Wells were coated with HVEM-His protein at concentration 6 µg/mL dissolved in PBS-T (100 µL per well) and incubated overnight at 4 °C. Unbound sites on the wells by HVEM were blocked with 5% bovine serum albumin (BSA) in PBS-T (200 µL per well). Peptides at three concentrations 50 µM, 12.5 µM, and 3.125 µM dissolved in PBS-T were added and incubated (200 µL per well). […] In the next step horseradish peroxidase (HRP)-conjugated goat antibody (Bio-Rad, Hercules, USA) at dilution 1:3000 in PBS-T (100µL per well) was applied. After each step, wells were washed five times with 200 µL of PBS-T. Incubations were carried out at 37 °C for 2 h, except for the antibody, which was incubated for 1 h. Finally, 200 µL of TMB substrate (Thermo Fisher Scientific,Waltham, MA, USA) was added, and after 15 min of incubation in the dark, absorbance was measured at 492 nm and 650 nm using an Infinite M200 Pro reader (Tecan, Switzerland). The negative control consisted of PBS-T buffer without peptides, while the positive control was mouse anti-human HVEM antibodies (1 µg/well, Bio-Rad, Hercules, CA, USA; #MCA6072GA). Each experiment was performed in three biological replicates, each consisting of three technical replicates and data were analyzed using one-way ANOVA with Dunnett’s post-hoc test in GraphPad Prism (San Diego, USA).
(ELISA stands for enzyme-linked immunosorbent assay.)
Consider `CC[C@H](C)[C@H](NC(=O)[C@@H](NC(C)=O)[C@@H](C)O)C(=O)N[C@H]1CSSC[C@@H](C(=O)N[C@@H](CCC(N)=O)C(=O)N[C@@H](CO)C(N)=O)NC(=O)[C@H](CO)NC(=O)[C@H](C(C)C)NC(=O)[C@H](CC(C)C)NC(=O)[C@H](CC(C)C)NC(=O)[C@H](CCC(=O)O)NC(=O)[C@H](CC(C)C)NC(=O)[C@H](CCC(=O)O)NC(=O)[C@H](CCC(=O)O)NC(=O)[C@@H]2CCCN2C(=O)[C@H](Cc2ccc(O)cc2)NC(=O)[C@H](CCCNC(=N)N)NC(=O)[C@@H]2CCCN2C(=O)[C@H]([C@@H](C)O)NC(=O)[C@H](CCCNC(=N)N)NC(=O)[C@H](CCCCN)NC(=O)[C@H](Cc2ccc(O)cc2)NC(=O)[C@H](CC(C)C)NC(=O)CNC(=O)[C@H](Cc2c[nH]cn2)NC1=O` [light4] (Ac-TICHGLYKRTPRYPEELELLVSCQS-NH2; disulfide 3-23), for which the “inhibition of HVEM/LIGHT complex formation” value is recorded as “below 10%”.

In the next test the target is T1, HVEM-His protein. In words: spectral shift (SpS); Monolith X; HVEM-His labelled with His-Tag Labeling Kit RED-tris-NTA 2nd Generation, final 50 nM; peptides 2 µM to 6.1 pM; PBS-T (0.05% Tween-20, 0.3 M NaCl, pH 7.4); fluorescence ratio 670/650 nm; 25 °C; apparent Kd (peptides aggregated at higher concentrations). Conditions: both partners purified.
For B1, the Kd was found to be 1380 nM. Still for that read-out and setting: with B2 the figure was 580 nM. Same read-out and setting: for B3 the value was 710 nM; for B4, 1680 nM. Still for that read-out and setting: for B5 the value was 1720 nM.
